Several values for one entry are separate records, joined by “and”; a condition that tells them apart may be missing. Equal entries are not always repeated. Entries after “also recorded” stand apart in the source; their conditions may differ.
Experiments:
GAP65 transcript = test: GAP65 silencing by in vivo injections of GAP65 dsRNA (RNAi) to intermolt crayfish; design: species or system Cherax quadricarinatus
Method: Relative GAP65 transcript levels in the gastrolith epithelial disc following silencing using GAP65 dsRNA were measured using realtime RT-PCR and presented in FIG. 4. GAP65 levels were evaluated in crayfish injected with ecdysone and GAP65 dsRNA, ecdysone and dsRNA carrier, ecdysone and C. quadricarinatus vitellogenin (CqVg) dsRNA, and a control injected with both carriers. CqVg an hepatopancreatic specific gene found mostly in reproductive females, served as a control for sequence specific silencing. […] In the crayfish injected with ecdysone and CqVg dsRNA, GAP65 transcript levels were similar to the levels detected in the ecdysone and dsRNA carrier injected group. In the control carriers injected crayfish GAP65 transcript levels were higher than the levels found in the ecdysone and GAP65 dsRNA injected crayfish but lower than the levels detected in both the ecdysone and dsRNA injected, and the ecdysone CqVg dsRNA injected crayfish.
In order to test the role of GAP65 in gastrolith formation, an RNAi (RNA interference) technique using in vivo injections of GAP65 dsRNA to intermolt crayfish was applied. The initiation of gastrolith formation was achieved by injection of ecdysone. In FIG. 5 gastrolith of crayfish injected with either ecdysone+GAP65 dsRNA, ecdysone+dsRNA carrier, or with carriers of both ecdysone and dsRNA can be seen. FIG. 5A is a lateral view of a representative gastrolith dissected from each treatment group. […] In the control carriers injected the gastrolith appeared undeveloped or in an initial growth stage. […] The control carrier gastrolith was too small to be detected by the X-ray imaging.
Scanning electron microscope (SEM) images of gastroliths dissected from crayfish injected with GAP65 dsRNA and ecdysone, and from crayfish injected only with ecdysone and dsRNA carrier, are presented in FIG. 6. FIG. 6A-B depict images of a cross section through the central part of the gastrolith. […] The dense mineral layered structure observed in the gastrolith of ecdysone and carrier injected is replaced with a loosely packed columnar mineralization structure, which resembles hollow straws, in the gastrolith of ecdysone and GAP65 dsRNA injected crayfish.

GAP10 transcripts = test: in vivo silencing of GAP10 transcripts during premolt; design: species or system C. quadricarinatus
Method: In order to examine the effect of in vivo silencing of GAP10 transcripts during premolt, intermolt males (MMI=0), each weighing 5-10 g were divided to four groups. Ten animals were injected daily with both ecdysone, and dsRNA of GAP 10; eight were injected with ecdysone; six were injected with both ecdysone and dsRNA of CqVg; and four were injected with ecdysone carrier only, i.e., 10% ethanol in Diethyl pyrocarbonate-treated doubly distilled water. Injections were given into the sinus of the first abdominal segment. For each individual crayfish the experiment was terminated at MMI=0.1, at which time the animal was anesthetized and its gastroliths were dissected out. Premolt duration was defined as the number of days until termination. […] Another group was injected with ecdysone and CqVg dsRNA (a hepatopancreatic-specific gene found mostly in reproductive females) and served as a control for sequence-specific silencing.
For analysis of the gastrolith surface roughness, optical phase interference microscopy (OPIM) analysis was used, providing topographic images of representative surface samples from each group (FIG. 37B).

C. quadricarinatus = settings: cited from earlier work
[1] = in vitro calcium carbonate precipitation assay testing the stabilization of ACC; format: physicochemical; settings: for form of calcium carbonate precipitated in the presence of the additive: in vitro precipitation from calcium salt and carbonate
Description: Analysis of the product may comprise testing the resultant CaCO3 by various methods (as XRD, electron diffraction, SEM) to verify its amorphous nature. […] The phosphate peak at 950 cm^−1, is proportional to the phosphate content in the sample. Yet, the ratio between 1080 to 950 cm^−1 is proportional, but not directly indicative of the CO3^2−/[…] ratio.
FIG. 7 presents precipitation results of calcium carbonate in the presence of GAP65 and in the presence of other protein (trypsin). SEM images in FIG. 7A indicate the distinct polymorph of calcium carbonate in each treatment.
(§1) 100 μl of 1M CaCl2 was added to 10 ml double distilled water (final concentration: 10 mM). 80 μl from the protein extraction solution (1.2 μg/μl) were added (final concentration ˜10 μg/ml), 100 μl of 1M Na2CO3 (final concentration: 10 mM) was added following an intensive shaking. The vial was centrifuged for 5 min at 4000 rpm, the precipitate was smeared over a glass slide and instantly dried with air flow. […] The observations were confirmed by Raman spectroscopy.
100 μl of 1M CaCl2 were added to 10 ml double-distilled water (DDW), attaining the final concentration of […]. 200 μl of P-serine (P-Ser) solution (100 mM) were added to the solution, attaining 2 mM of P-Ser. 100 μl of 1M Na2CO3 (final concentration: 10 mM) were added following an intensive shaking. The vial was centrifuged for 5 min at 4000 rpm at room temperature. The upper solution was removed and the precipitation was smeared over a glass slide and instantly dried by air flow.

[2] = stability of ACC held at room temperature, tested by Raman spectroscopy; format: physicochemical
Method: The precipitated calcium carbonate was checked over long periods for the amorphous/crystalline state.
as §1

[3] = calcium binding on nitrocellulose membrane after SDS-PAGE; settings: gastrolith protein fraction transferred to nitrocellulose membrane
Method: FIGS. 33A-B. relate to the identification of GAP10 and characterization of its phosphorylation and calcium-binding properties; FIG. 33A, left: SDS-PAGE stained with Coomassie blue; middle: Staining of the same gel for phosphoproteins; right: transfer of the same fraction to a nitrocellulose membrane and incubation with […]. Spots identified as GAP10 by LC-MS are circled. Abbreviations: PC (positive control).
(§2) Proteins that were both phosphorylated and calcium-binding were prepared for LC-MS. Two of them, migrating at apparent molecular masses of ˜9 and ˜11 kDa (circled), were identified as GAP10 (FIG. 33B), and their pIs were calculated as 5 and 5.5, respectively. Since GAP10 has a mildly acidic pI, it is negatively charged at the pH of the gastrolith pouch, which is approximately 8.7.

[4] = isoelectric focusing then SDS-PAGE of gastrolith protein fraction; format: physicochemical; settings: two spots of ~9 and ~11 kDa identified as GAP10, respectively
Method: as §2

In the case of C[C@H]([C@H](O)CCC(C)(C)O)[C@H]1CC[C@@]2(O)C3=CC(=O)[C@@H]4C[C@@H](O)[C@@H](O)C[C@]4(C)[C@H]3CC[C@]12C [ecdysone], the gastrolith spherule size (GAP65 transcript; SEM x15000) is reported as 40-60 nm, the “gastrolith structure by SEM” value (GAP65 transcript; cross section through central part of gastrolith) is reported as “normal gastrolith appearance” and the gastrolith morphology (GAP65 transcript; dissected gastrolith, lateral view, gastrolith formation initiated by ecdysone) is reported as “normal with no deformities”. For the same molecule, the “gastrolith mineral density by X-ray imaging” value (GAP65 transcript; dorsal X-ray view prior to dissection) was “normal with no effects on mineral densities”, the “Swedish height (SH) of gastrolith surface” value (GAP10 transcripts; OPIM topographic images) was 4.4±0.5 μm and the “average premolt duration (number of days until reaching MMI=0.1)” value (GAP10 transcripts; repeated daily injections to intermolt males, dsRNA given together with ecdysone) was 10.1 days. For the same molecule, the gastrolith surface appearance (GAP10 transcripts; top view of dissected gastroliths) was “fairly smooth”, the “typical induced premolt duration until ecdysis” value (C. quadricarinatus; known for ecdysone administration) was 10 to 14 days and the “peak observed molt mineralization index (MMI)” value (C. quadricarinatus; reached 1-2 days before the molt event) was 0.125-0.145.

B1: GAP65: Negatively charged glycoprotein of about 65 kDa from Cherax quadricarinatus gastrolith, SEQ ID NO. 1; used as enriched DEAE fraction 17 (protein, listed as Cherax quadricarinatus)
chain: MIRRVTTPLLALLLAGWVVAQTTDMDPEQYCARRDDEYFRKDFGDPAEFASDYRANCGVYYRCVPAPAGKRSISASQCQSELFFDVQQQICERKSKVTNCEQIDKEHPPQPFWPLREGEESQCKSGEIMCGSGECLPQHRFCDENSDCADGSDENICTPDKDPNRADVCEPRTCLWSQGCFCSVDGTRIPGDLTVDQTPQMITITFTGAINERNFRIFQDVFKDTVKHKGNDCTPKGTFFISHGFSNYSAIQELNRVGHEIAVSSITNNDNPDYWSKLSALDYEAEMDGARLIIEKFANITANEVLGIRVPKQRVGGNRQFRMMVDWGFLYDSSISAPMGRLPLWPYTLMHRMPHKCLGNDQNCPSQNFTVWEMVINEMDRRDDPQFDERLTGCHFVDQCANIQSPEQFRAFLDNNLARHYRTNRAPLGLHFTSGYFETRRDFLREFVKWVRETALSGDYFFVTMQQVINWMEAPTELTAINNFQEWKGKCEVKGQPYCSLPNPCPKKVPRIFPNEEEMFLYTCMECPNTYPWLGDPHGNGFLDIPDF
For B1, the “ACC share of the total CaCO3” value ([1]; 10 mM CaCl2, 10 mM Na2CO3, ~10 μg/ml protein, estimated) was “at least 50%”, the “Raman spectroscopy (RS) of the CaCO3 precipitate” value ([1]; after precipitation and drying, broad peak about 1080 cm^-1 indicates ACC) was “distinct spectra of ACC” and the “form of calcium carbonate precipitated in the presence of the additive” value ([1]; SEM) was “amorphous CaCO3; also recorded: amorphous form (ACC)”. For the same molecule, the “CaCO3 deposits characterized by polarized microscope” value ([1]; precipitation in the presence of GAP65, confirmed by Raman spectroscopy) was “mixture of calcite, vaterite, and ACC”, the “Raman spectra (around the 1085 peak) compared with calcite” value ([2]; 6.5-month old ACC, room temperature) was “mixture seemingly comprising ACC and vaterite” and the “nanosphere size of ACC” value ([2]; SEM 40 days after the precipitation) was 50-500 nm. The “time the ACC remained stable (amorphous state kept)” value ([2]; room temperature, Raman spectra) was “at least 1 months”.

B2: GAP10: Gastrolith protein of Cherax quadricarinatus, calculated 10 kDa, SEQ ID NO. 24 (fragment SEQ ID NO. 25) (protein, listed as Cherax quadricarinatus)
chain: MKIFILLVVIGVVSAQLGAGQVGGAAPAQGAGGAAGVGGPGAAPVNPYGPKVYGSGLNNPFAFPHNTWEVSRAAAVAATNPNLYVRVESDGGWEFTNRFGEKVDVYNSFGQELD
For B2, the calcium binding [3] was “calcium-binding ability” and the pI [4] was 5 and 5.5.

B3: trypsin: Other (inert) protein used in equivalent amount as control in the precipitation assay (protein, UniProt P00760 24-246, looked up)
Serine protease 1: IVGGYTCGANTVPYQVSLNSGYHFCGGSLINSQWVVSAAHCYKSGIQVRLGEDNINVVEGNEQFISASKSIVHPSYNSNTLNNDIMLIKLKSAASLNSRVASISLPTSCASAGTQCLISGWGNTKSSGTSYPDVLKCLKAPILSDSSCKSAYPGQITSNMFCAGYLEGGKDSCQGDSGGPVVCSGKLQGIVSWGSGCAQKNKPGVYTKVCNYVSWIKQTIASN
For B3, the “form of calcium carbonate precipitated in the presence of the additive” value ([1]; SEM) was “rapid crystallization” and the “size of calcium carbonate crystals formed” value ([1]; same conditions, control protein, SEM) was 10 μm.
